Assay results from patent US20250074943A1 (Amgen, published 2025).
“And” between values parts separate entries of the source, which are not always exact repeats. Identical values can stand only once. Bridge positions count the residues as written; N and C are the ends. Ends that are not written are not given here.

T1: recombinant DLL3 ectodomain (rhDLL3-Fc) (human, UniProt Q9NYJ7 27-492, biotinylated (NHS-LC-LC-biotin) in the BLI and SPR assays)
T1 construct: also called rDLL3-Fc; recombinant human DLL3 (rDLL3); not shown: Fc part
T1 sequence: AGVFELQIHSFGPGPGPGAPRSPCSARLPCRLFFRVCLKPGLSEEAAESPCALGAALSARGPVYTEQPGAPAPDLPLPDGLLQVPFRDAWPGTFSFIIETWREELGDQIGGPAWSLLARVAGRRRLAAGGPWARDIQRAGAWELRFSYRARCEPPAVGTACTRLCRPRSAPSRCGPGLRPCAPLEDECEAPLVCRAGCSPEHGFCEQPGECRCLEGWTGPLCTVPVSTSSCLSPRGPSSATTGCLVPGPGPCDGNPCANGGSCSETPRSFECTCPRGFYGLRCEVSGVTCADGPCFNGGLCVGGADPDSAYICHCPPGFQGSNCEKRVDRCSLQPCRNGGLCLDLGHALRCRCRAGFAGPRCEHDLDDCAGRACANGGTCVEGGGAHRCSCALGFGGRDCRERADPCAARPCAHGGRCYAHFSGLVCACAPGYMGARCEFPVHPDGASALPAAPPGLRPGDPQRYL

T2: human DLL3 expressed on the surface of cells (human, UniProt Q9NYJ7 27-618)
T2 construct: Stably transfected CHO or HEK293 cells; also called huDLL3; hDLL3
T2 sequence: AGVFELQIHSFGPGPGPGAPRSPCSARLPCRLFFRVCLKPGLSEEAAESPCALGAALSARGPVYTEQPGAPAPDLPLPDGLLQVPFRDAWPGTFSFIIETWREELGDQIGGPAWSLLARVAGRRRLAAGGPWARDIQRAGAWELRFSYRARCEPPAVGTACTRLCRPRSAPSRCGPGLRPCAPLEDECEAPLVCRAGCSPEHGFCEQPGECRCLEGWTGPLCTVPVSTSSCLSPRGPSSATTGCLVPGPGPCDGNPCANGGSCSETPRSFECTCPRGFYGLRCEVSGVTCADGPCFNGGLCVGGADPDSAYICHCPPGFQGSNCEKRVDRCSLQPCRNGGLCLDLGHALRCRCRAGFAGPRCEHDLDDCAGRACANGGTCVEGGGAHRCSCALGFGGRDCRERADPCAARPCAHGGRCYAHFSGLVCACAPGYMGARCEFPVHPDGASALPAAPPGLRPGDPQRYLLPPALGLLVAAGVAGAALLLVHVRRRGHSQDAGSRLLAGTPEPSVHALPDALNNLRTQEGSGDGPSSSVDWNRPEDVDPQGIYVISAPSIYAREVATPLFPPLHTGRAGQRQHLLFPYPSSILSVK


Assays:
[1] = biological target: T1, recombinant DLL3 ectodomain (rhDLL3-Fc); assay: phage ELISA on rDLL3-Fc
Description: The pools of phages obtained after each round of selection were tested by Phage-ELISA for their binding to rDLL3-Fc and counter-screened on hIgG-Fc. Briefly, proteins were immobilized on NUNC-Maxisorp ELISA plates. Then the plates were washed and blocked. 100 μl of pre-blocked phages were added to the blocked plate and incubated for 1 hr at room temperature. Anti-M13 HRP conjugated mAb were added and the plates were read on a Multiskan Ascent (Thermo) Elisa reader at A370 nm after the addition of TMB (Sigma).

[2] = biological target: T2, human DLL3 expressed on the surface of …; assay: phage cell ELISA/FACS on DLL3-expressing cells;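 note: phages incubated 1 h at room temperature with cells overexpressing human DLL3, read by flow cytometry fluorescence, then fixed-cell ELISA with anti-M13-HRP at A370 nm, parental cells alongside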
Description: The pools of phages were also screened for their binding to cells overexpressing human DLL3 on their surface. Cells were detached, counted and re-suspended at 1.8×10⁶ cell/ml in FACS buffer containing 2% FBS. Pre-blocked phages were then added to the cells and incubated for 1 hr at room temperature. […] Cells were then washed and re-suspended into FACS buffer. Fluorescence was acquired using a flow cytometer (FACS Canto/Becton Dickinson).
Phage clones with signal higher than four-fold above the background were further tested for their binding to DLL3 on the surface of cells expressing DLL3 by cell ELISA. Briefly, parental cells and cells overexpressing DLL3 were plated on 96 well plate the day before the assay. The cells were then fixed and washed before the addition of pre-blocked phages as previously described. The cells were then washed and anti-M13-HRP was added. The signal was measured using a Multiskan Ascent (Thermo) ELISA reader at A370 nm.

[3] = biological target: T1, recombinant DLL3 ectodomain (rhDLL3-Fc); assay: BLI (Octet), biotinylated rhDLL3-Fc on streptavidin sensors
Description: Binding kinetic assays were performed using Bio-layer interferometry (BLI) technology. The recombinant DLL3 ectodomain (rhDLL3-Fc) was biotinylated using EZ-Link Sulfo-NHS-LC-LC-Biotin Kit according to the manufacturer's protocol (Pierce by Thermo Fisher Scientific). The recombinant protein was incubated with an excess of NHS-LC-LC Biotin ester, in a molar ratio of 1:3 (protein: biotin), at 25° C. for 90 min. The un-reacted biotin ester was removed by subsequent buffer exchange on 0.5 ml Zeba spin desalting columns 7K MWCO (Pierce by Thermo Fisher Scientific).

Binder | binding result [1] | binding result [2] | Kd [3] | RT (residence time) [3] [s]
AETVEFDYCYGDVEEWTCVY (not shown: M13 pIII coat protein) [SEQ ID NO 55] | binds | binds |  | 
AETVEFWSCHYSYWTVSCGT-NH2 (disulfide 9-18 (inferred)) [PepSP1157] |  |  | 123 nM | 89
AETVEFDYCLWAPDAWGCQN-NH2 (disulfide 9-18) [PepSP1159] |  |  | 900 nM | 6
AETVEYWRCDWYEETVACGT-NH2 (disulfide 9-18 (inferred)) [PepSP1155] |  |  | 155 nM | 177
AETVEFWSCKWWGGAADEYTYSCGW-NH2 (disulfide 9-23 (inferred)) [PepSP1182] |  |  | 75.8 nM | 96.6
AETVEFYGCWGNYNDYTCSW-NH2 (disulfide 9-18 (inferred)) [PepSP1177] |  |  | 236 nM | 52
AETVEFYGCYGDRNDYTCTW (not shown: M13 pIII coat protein) [SEQ ID NO 42] | binds | binds |  | 
WGCTGTWGNETCWW-NH2 (disulfide 3-12 (inferred), PepSP1146 without AETVEF) [PepSP1213] |  |  | 7500 nM | 1.36
AETVEFYGCETYSGGWTCLW-NH2 (disulfide 9-18 (inferred)) [PepSP1167] |  |  | 399 nM | 47
AETVEFWTCHGNADEWTCSW-NH2 (disulfide 9-18 (inferred)) [PepSP1162] |  |  | 159 nM | 51
AETVEFYGCSVNADGWTCSW-NH2 (disulfide 9-18 (inferred)) [PepSP1170] |  |  | 166 nM | 43
AETVEFYGCRGGDGEWTCVW-NH2 (disulfide 9-18 (inferred)) [PepSP1165] |  |  | 263 nM | 66
AETVEFYGCTGDAYEYTCTW-NH2 (disulfide 9-18 (inferred)) [PepSP1147] |  |  | 59 nM | 65.6
AETVEFWTCYWTEGVSGCRW (not shown: M13 pIII coat protein) [SEQ ID NO 46] | binds | binds |  | 
AETVEFWSCHYSYWTVSCGT (not shown: M13 pIII coat protein) [SEQ ID NO 48] | binds | binds |  | 
AETVEFYGCSMDWRGVTCAW (not shown: M13 pIII coat protein) [SEQ ID NO 49] | binds | binds |  | 
AETVEFYGCKWDWKGWTCAW (not shown: M13 pIII coat protein) [SEQ ID NO 57] | binds | binds |  | 
AETVEFYGCQYYGWDYTCAW-NH2 (disulfide 9-18 (inferred)) [PepSP1176] |  |  | 207 nM | 67
AETVEFLGCHGDNSEWTCVW (not shown: M13 pIII coat protein) [SEQ ID NO 43] | binds | binds |  | 

Binder | binding result [1] | binding result [2] | Kd [3] | RT (residence time) [3] [s]
WDCWGNTDDWTCTW-NH2 (disulfide 3-12 (inferred), PepSP1161 without AETVEF) [PepSP1269] |  |  | 181 nM | 20
AETVEFYGCTGDAYEYTCTW (not shown: M13 pIII coat protein) [SEQ ID NO 45] | binds | binds |  | 
AETVEFWTCHGNADEWTCSW (not shown: M13 pIII coat protein) [SEQ ID NO 52] | binds | binds |  | 
AETVEFRGCTGNVYDWTCVW-NH2 (disulfide 9-18 (inferred)) [PepSP1160] |  |  | 494 nM | 47
AETVEFYGCRGGDGEWTCVW (not shown: M13 pIII coat protein) [SEQ ID NO 54] | binds | binds |  | 
AETVEFDYCYGDVEEWTCVY-NH2 (disulfide 9-18 (inferred)) [PepSP1166] |  |  | 145 nM | 48
AETVEFWDCWGNTDDWTCTW (not shown: M13 pIII coat protein) [SEQ ID NO 41] | binds | binds |  | 
AETVEFYGCETYSGGWTCLW (not shown: M13 pIII coat protein) [SEQ ID NO 56] | binds | binds |  | 
AETVEFYGCSMDWRGVTCAW-NH2 (disulfide 9-18 (inferred)) [PepSP1158] |  |  | 643 nM | 31
AETVEFYGCKWDWKGWTCAW-NH2 (disulfide 9-18 (inferred)) [PepSP1168] |  |  | 568 nM | 44
AETVEFLGCHGDNSEWTCVW-NH2 (disulfide 9-18 (inferred)) [PepSP1163] |  |  | 69 nM and 68.7 nM | 167
AETVEFWTCYWTEGVSGCRW-NH2 (disulfide 9-18 (inferred)) [PepSP1151] |  |  | 125 nM | 167
AETVEFYGCYGDRNDYTCTW-NH2 (disulfide 9-18 (inferred)) [PepSP1178] |  |  | 147 nM | 75.9
AETVEFRGCTGNVYDWTCVW (not shown: M13 pIII coat protein) [SEQ ID NO 51] | binds | binds |  | 
AETVEFYGCYGEQEQWTCLW-NH2 (disulfide 9-18 (inferred)) [PepSP1173] |  |  | 106 nM | 101
AETVEFDGCKGDWYEWTCWW-NH2 (disulfide 9-18 (inferred)) [PepSP1164] |  |  | 125 nM | 125
AETVEFDGCKGDWYEWTCWW (not shown: M13 pIII coat protein) [SEQ ID NO 53] | binds | binds |  | 
AETVEYWRCDWYEETVACGT (not shown: M13 pIII coat protein) [SEQ ID NO 47] | binds | binds |  | 
AETVEFWSCKWWGGAADEYTYSCGW (not shown: M13 pIII coat protein) [SEQ ID NO 44] | binds | binds |  | 
